One series addresses WelP1 (Hapalosiphon welwitschii, UniProt A0A067YVH5). The experiment in a line: LC-MS product formation. In kind it is biochemical. The conditions noted are these: co-substrate GPP; MgCl2 5 mM; Tris 50 mM pH 8.0.
In series [1] the test system is [C-]#[N+]/C=C\c1c[nH]c2ccccc12. Briefly: purified protein. It is filed as biochemical, Fischerella ambigua. The conditions noted are these: co-substrate GPP, MgCl2 10 mM, pH 8.0.

As to `[C-]#[N+]/C=C\c1c[nH]c2ccccc12` [(Z)-1, cis-indolyl vinyl isonitrile], the LC-MS product formation result at WelP1 was “The enzymatic products derived from WelP1 and FidP1 are perfectly identical to that from AmbP1”.

On to AmbP1 (Fischerella ambigua UTEX 1903), for which, in series [1], the Km stood at 15.4 ± 3.2 µM and the turnover number (kcat) is 6.9 ± 1.2 s⁻¹.

(Values after publication PMC4720564 (Chemical communications (Cambridge, England), 2016).)
